Tests used:
[1] = test system: synthetic purified T1A peptide
[2] = biological target: T1, synthetic purified T1A peptide
T1 chain: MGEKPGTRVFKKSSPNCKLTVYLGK

With MKK7 (purified) the “optimal T1A concentration for JNK3 phosphorylation by MKK7, against full-length arrestin-3” value [1] was “in both cases optimal T1A concentrations were ˜10-times lower than those of full-length arrestin-3”.

B1: MKK4 (purified) (protein)
chain: MAAPSPSGGGGSGGGSGSGTPGPVGSPAPGHPAVSSMQGKRKALKLNFANPPFKSTARFTLNPNPTGVQNPHIERLRTHSIESSGKLKISPEQHWDFTAEDLKDLGEIGRGAYGSVNKMVHKPSGQIMAVKRIRSTVDEKEQKQLLMDLDVVMRSSDCPYIVQFYGALFREGDCWICMELMSTSFDKFYKYVYSVLDDVIPEEILGKITLATVKALNHLKENLKIIHRDIKPSNILLDRSGNIKLCDFGISGQLVDSIAKTRDAGCRPYMAPERIDPSASRQGYDVRSDVWSLGITLYELATGRFPYPKWNSVFDQLTQVVKGDPPQLSNSEEREFSPSFINFVNLCLTKDESKRPKYKELLKHPFILMYEERAVEVACYVCKILDQMPATPSSPMYVD
For B1, the “JNK3 phosphorylation by MKK4 as a function of T1A concentration (in vitro kinase assay, purified proteins)” value [2] was “the optimal concentration of T1A for promoting JNK3 phosphorylation by MKK4 is lower than for MKK7-JNK3 module” and the “optimal T1A concentration for JNK3 phosphorylation by MKK4, against full-length arrestin-3” value [2] was “in both cases optimal T1A concentrations were ˜10-times lower than those of full-length arrestin-3”.

Source: patent US20180236026
